Reference: IntAct's records for PubMed 16510448

B1: DNA polymerase delta subunit 4 (Homo sapiens), Q9HCU8 (parent)
chain: MGRKRLITDSYPVVKRREGPAGHSKGELAPELGEEPQPRDEEEAELELLRQFDLAWQYGPCTGITRLQRWCRAKQMGLEPPPEVWQVLKTHPGDPRFQCSLWHLYPL

Variants of: B1
Conditions: with pcna_human PCNA

effect of a mutation on the interaction	Variant
disrupting interaction	MGRKRLATDAAPVVKRREGPAGHSKGELAPELGEEPQPRDEEEAELELLRQFDLAWQYGPCTGITRLQRWCRAKQMGLEPPPEVWQVLKTHPGDPRFQCSLWHLYPL [I7A;S10A;Y11A]
